PMC5080433 (Nature Communications, 2016)
Values belong to the binder of their own block, whether it stands above or below them.

Key:
[1] = molecular target: p97-A232E (human, UniProt P55072 2-806, A232E); test: SEC; details: both partners purified
[2] = molecular target: T1, full-length p97 (residues 2–806), purified recombinant (human, UniProt P55072 2-806); test: BLI; details: both partners purified
T1 construct: p97 (VCP), human, residues 2-806; Hexamer when alone; in complex with ASPL-C it stands in heterotetramers; also called p97 hexamers; wt p97; source: E. coli BL21 DE3 Rosetta2, purified (Ni-NTA, TEV protease, SEC)

binding result [1]: binds
B1: ASPL-C (residues 313–553), purified recombinant (domain or fragment)
chain: VDREPVDREPVVCHPDLEERLQAWPAELPDEFFELTVDDVRRRLAQLKSERKRLEEAPLVTKAFREAQIKEKLERYPKVALRVLFPDRYVLQGFFRPSETVGDLRDFVRSHLGNPELSFYLFITPPKTVLDDHTQTLFQANLFPAALVHLGAEEPAGVYLEPGLLEHAISPSAADVLVARYMSRAAGSPSPLPAPDPAPKSEPAAEEGALVPPEPIPGTAQPVKRSLGKVPKWLKLPASKR

Kd [2]: ~2 nM
B2: C-terminally His-tagged full-length ASPL (residues 1–553) (natural protein, human, UniProt Q9BZE9 1-553, looked up)
chain: MAAPAGGGGSAVSVLAPNGRRHTVKVTPSTVLLQVLEDTCRRQDFNPCEYDLKFQRSVLDLSLQWRFANLPNNAKLEMVPASRSREGPENMVRIALQLDDGSRLQDSFCSGQTLWELLSHFPQIRECLQHPGGATPVCVYTRDEVTGEAALRGTTLQSLGLTGGSATIRFVMKCYDPVGKTPGSLGSSASAGQAAASAPLPLESGELSRGDLSRPEDADTSGPCCEHTQEKQSTRAPAAAPFVPFSGGGQRLGGPPGPTRPLTSSSAKLPKSLSSPGGPSKPKKSKSGQDPQQEQEQERERDPQQEQERERPVDREPVDREPVVCHPDLEERLQAWPAELPDEFFELTVDDVRRRLAQLKSERKRLEEAPLVTKAFREAQIKEKLERYPKVALRVLFPDRYVLQGFFRPSETVGDLRDFVRSHLGNPELSFYLFITPPKTVLDDHTQTLFQANLFPAALVHLGAEEPAGVYLEPGLLEHAISPSAADVLVARYMSRAAGSPSPLPAPDPAPKSEPAAEEGALVPPEPIPGTAQPVKRSLGKVPKWLKLPASKR
notes: ASPL, human, residues 1-553; cDNA from the Mammalian Gene Collection; also called ASPL-His; source: E. coli BL21 DE3 Rosetta2, purified (glutathione-Sepharose, TEV cleavage, SEC); not shown: His, C-terminal, kept; GST, N-terminal, cleaved
